Data: the RNAGym collection of RNA variant scans (doi:10.1073/pnas.2313332121)

B1: TPR t1 (parent)
chain: GACCAAUCUGCCCUCAGAGCUCGAGAACAUCUUCGGAUGCAGAGGAGGCAGGCUUCGGUGGCGCGAUAGCGCCAACGUCCUCAACCUCCAAUGCAUCCCACCACAUGAUGAUGCCUGAAGAGCCUUGGUUUUUUG

Variants of: B1
Test: polymerase ribozyme fitness, log enrichment relative to wild type (log ratio); higher = more active; in vitro selection for triplet polymerase activity
In short: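 Each subunit of a heterodimeric triplet polymerase ribozyme was represented by a PCR-built, transcribed mutant library that underwent triplicate single-round in vitro selection with frozen incubation at −7 °C. Extended constructs were recovered by gel excision, streptavidin-bead capture and RT-PCR, and Illumina sequencing of input and output libraries kept genotypes with ≥10 input reads and ≥1 read per output. Fitness is the logarithm of genotype enrichment relative to wild-type enrichment, from inverse-variance-weighted replicate averages, with a logarithm base of 2.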

Variant | polymerase ribozyme fitness (log ratio)
C31A A43G U59G C98G A100G A111G | -6.13
C97U U106G | -2.7
A75U C76G C88G C89U A90G | -2.47
C101G C115U | -3.55
C11G G42C A95U | -1.3
C73A G113A U131A | -1.4
C56U C85G A91U C101U U106C | -4.05
C72U C79G | -1.97
C11A G48U G69U A103C | -3.74
A29U C99U U106A | -4.1
A26U C40U | -4.02
G52A C62U | -0.528
C13A C20U G61U C72U | -3.24
C22G U38G | -4.45
A18U A26G C56U C123G | -0.0936
G44C A84C | -0.969
C3G C11G G19U G63A G120A | -5.7
U32C C64U G93A C114G U134G | -2.93
U32C C85G | -2.56
A74U U87A C102U C104A | -2.53
G48U G61U U112C | 1.56
U59A C123G | 2
C62A U116G G120C U129A | -3.57
U14A | -1.85

Variant | polymerase ribozyme fitness (log ratio)
C8U C12A G19U U59C G120A | -1.69
C40A U133G | -1.45
A24G C82G A84U U106C | -2.06
A18G C101G G117C | -4.66
G61A A111U | -2.88
C80A G117A | -4.27
C22A C53A C94U G110U | -6.9
C62A G77U C115G | -2.95
G69U A119G | 1.7
C72U C85U U109A A121G | -4.72
C40G A41U G45A A91U | -4.47
G47U A90G | -0.297
C64U C99U | -2.88
A46U G71U C89U C115A | -2.17
C53A G135U | -0.659
C3U A6U C20G A37U C72U C82U G113A A119C U129C U133A | -5.44
A5U C13G A75C C76A | -1.8
G42C C56U U81A C124G U132A | -0.851
A37U G48A G61C A105U A111U | -6.69
G39U U87C | -0.0295
C3U G45U C72G | -2.05
G61A G135A | -1.88
G17A A43U C88A U96A U129A | -3.98
C8G G63A | -0.627

Variant | polymerase ribozyme fitness (log ratio)
G42U G47U G120U | -1.57
U21C G61C C85A A95U | -4.53
C114U U129A | -3.98
C15G A37G C62U C76U A118U C124U | -2.37
G52A C56G U96G | -1.35
A43G C80U | -2.86
C4A U9G | -0.689
C28A U78C A91U U106A G110U | 0.263
A6G C8G G10U C76A G117C C124A | -2.05
A16U A41G U78G A100U | -3.98
C62A G110A | -2.12
G48A C85G C89A U96C | -2.26
A37U A46U C64U C115A | -3.03
C80U C88G | -1.25
U7G C104A C123G G128C | -3.67
G44C C53G C73U C82U C99G C124G | -7.17
U130G U131A | -0.66
C73G C86U U109A | -6.23
A24G G77A C115U | -2.98
U9C G63A | 0.19
G71U A74U A95U U112G | -3.05
C40U C98U | -2.01
G60U U87A U126C | -0.499
G10A C40A C56A A84C C85A C99A C115U | -7.46

Variant | polymerase ribozyme fitness (log ratio)
C70U C101A U106C U133A | -0.685
G10C G39A C56G G113U A118U | -4.76
G42A C53G | -2.5
A41G C70U C82A U125G | -1.79
A46U G71U A118G | -0.0825
G44U C70U | -2.01
A90C C102U | -4.08
G35A U78G | -4.14
C3U C15A G52C | -3.65
U78A C114G | -2.43
G25A C124U | -5.31
C8G G39A | -0.708
A50C U130A | -0.352
C70A G128U | -3.9
C88U C104U | 0.689
A29G C79G | -2.5
C49A G71U G120U | 0.255
A18C G47A A121U | -1.35
U9G G39A C56U | 0.0691
C13U G122A | 0.447
C8A C15U G47C G63A C98A C114U G117A U129G | -7.35
C13A C73A G120A C123A | -0.951
C11A C40U C49U C56A C123G U129A | -3.2
U7G A84U G127A | -0.135

Variant | polymerase ribozyme fitness (log ratio)
A91G G110U | -2.66
G42C C64U | -0.982
G47U A66C A95C | -4.27
G10U G71C | -1.29
C20A C40A C72U C73U | -4.3
C15G A29G G39U G69U | -4.2
G36U G61A | -1.47
G110C U125C | -2.68
G60A C72G C79A U87C U129C | -3.89
C62G U112G | -1.83
G47U G61C | -2.36
A84U G93U | -1.44
C8A C62U A118C | -2.69
G69C A118G | -1.23
A5C C20A A43C G44C G71A C97U U106A C115A | -6.63
C12A C49G G63C C86G U131G | -3.12
A74U C88G A118U | -1.31
C99A C123G | -4.92
A16G G61C | -2.19
C13A C56U U59A | -2.77
C34A G44C G69U C88A A91C G110A | -4.87
U38A G63U U131A | -2.72
C11G G23U G39C G45C G47C C89U C99G C115U | -7.14
C8G C89A G117A U129A | -2.73

Variant | polymerase ribozyme fitness (log ratio)
U7A G57U | -0.259
U14G G61C | -4.21
A27C C31U A46C A84C C89A G110U U112A C123U U125A | -6.63
G19A C76U C124U | -1.46
U21A C53U C85U | -2.21
C12U U33G A105U U112G U125A | -7
G10C G61A G93C | -1.11
A2C G110A A121C | -2.66
C49A A50G G52U A118U | 0.379
C56A G113A | -0.455
A27U C104U | -3.5
G52U G69U C79A U87C U129G | -1.06
A2C C62U G110A | -3.07
A18G G19A U96C C115A | -4.42
A16U C22U | -3.56
C20A G23A G36A G48A G113A | -7.55
C13U | 0.225
A2U C12U G110A U129C | -1.58
A74C C82U A95C | -0.152
A50C C56G | -0.303
C49A G77C C88A | -1.31
C3U C11G C12A A50U C56G G113U | -6.33
A5G U54C G69C A118G U129A | -2.84
U7A A50U C64U | -0.349

Variant | polymerase ribozyme fitness (log ratio)
C34G A90C U112G | -6.02
A46U G93A A119G U132A | -1.15
C12U C62G G122U | -0.331
G10U U129C | -1.9
A2U C13A C73G | -5.15
G48U G61A C89A A119U | -2.48
G48U A74U | -0.741
C3U C73U A100C | -1.36
G77A U81A G128A | -2.44
C11G G47U C56U U112C G122A | -0.322
G48A C82U U92A G110U | -6.7
G61A G113U | -2.69
C11G C97A C102U | -4.77
G10U A24G G58C C79U | -2.27
C70G A103U G120A A121C C123U | -5.54
C56A C62U C114U | -2.3
C8G G25A A26G C73U G128A | -4.47
G51A C62U G113A | -3.5
C31A C72U C123A U125G U129A U133G | -6.38
A29U A46U U106A | -2.03
A5C U7C G17U C86G | -3.53
C56A G93A | -0.661
G23U G69C G120A | -5.9
